Test results published in article PMC4364741, “Recognition of Neisseria meningitidis by the Long Pentraxin PTX3 and Its Role as an Endogenous Adjuvant” (PLoS ONE, 2015).

Molecular target: T1, Biotinylated human PTX3 (bPTX3) (human, UniProt P26022 18-381, biotin (sites not given))
T1 construct: Long pentraxin 3 (PTX3), human, as m1 but biotinylated; secreted by CHO cells and purified from the supernatant; Same protein as m1 with a biotin label; also called human bPTX3
Test: ELISA; bPTX3 (0.56–17.92 pmol) on triplicate wells coated with 125 pmol/well of antigen; bound PTX3 from a standard curve of bPTX3; nonlinear fitting, one site binding curve; apparent
Details: both partners purified

T1 sequence (P26022 18-381): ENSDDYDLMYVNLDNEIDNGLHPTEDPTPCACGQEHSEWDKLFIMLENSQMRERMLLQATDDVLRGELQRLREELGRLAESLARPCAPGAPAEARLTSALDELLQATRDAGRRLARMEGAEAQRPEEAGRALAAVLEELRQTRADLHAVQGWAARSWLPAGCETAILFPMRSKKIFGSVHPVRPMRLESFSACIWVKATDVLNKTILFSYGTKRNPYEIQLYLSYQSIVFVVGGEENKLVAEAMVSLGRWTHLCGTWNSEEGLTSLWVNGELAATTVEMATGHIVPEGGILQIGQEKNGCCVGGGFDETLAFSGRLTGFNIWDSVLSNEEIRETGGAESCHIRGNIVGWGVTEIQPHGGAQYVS

Binder	Kd
Genome-derived Neisserial antigen GNA2091 (natural protein, Neisseria meningitidis, UniProt Q9JXE1 1-202, looked up, GNA2091, recombinant surface molecule of Neisseria meningitidis) CVSAVIGSAAVGAKSAVDRRTTGAQTDDNVMALRIETTARSYLRQNNQTKGYTPQISVVGYNRHLLLLGQVATEGEKQFVGQIARSEQAAEGVYNYITVASLPRTAGDIAGDTWNTSKVRATLLGISPATQARVKIVTYGNVTYVMGILTPEEQAQITQKVSTTVGVQKVITLYQNYVQR	4 nM
Genome-derived Neisserial antigen GNA1030 (natural protein) ATYKVDEYHANARFAIDHFNTSTNVGGFYGLTGSVEFDQAKRDGKIDITIPIANLQSGSQHFTDHLKSADIFDAAQYPDIRFVSTKFNFNGKKLVSVDGNLTMHGKTAPVKLKAEKFNCYQSPMEKTEVCGGDFSTTIDRTKWGMDYLVNVGMTKSVRIDIQIEAAKQ	37 nM
